The data set is described as follows: label from the status in PepcDB records.

Take “GSLKCILLNQAEELPIEFLPKDGVYGKGKLFDSRNMEIENFTESDILQDARRAAEAHRRARYRVQSIVRPGITLLEIVRSIEDSTRTLLKGERNNGIGFPAGMSMNSCAAHYTVNPGEQDIVLKEDDVLKIDFGTHSDGRIMDSAFTVAFKENLEPLLVAAREGTETGIKSLGVDVRVCDIGRDINEVISSYEVEIGGRMWPIRPISDLHGHSISQFRIHGGISIPAVNNRDTTRIKGDSFYAVETFATTGKGSIDDRPPCSHFVLNTYKSRKLFNKDLIKVYEFVKDSLGTLPFSPRHLDYYGLVKGGSLKSVNLLTMMGLLTPYPPLNDIDGCKVAQFEHTVYLSEHGKEVLTRGDDY”: the protein production result is listed as “not failed”.

Consider “GSLQDNSSYPDEPWRITEEQREYYVNQFRSLQPDPSSFISGSVAKNFFTKSKLSIPELSYIWELSDADCDGALTLPEFCAAFHLIVARKNGYPLPEGLPPTLQPEFIVTD”, for which the protein production result is reported as “not failed”.

As to “GSQPKLTEAVSLMEANIEEPLSTDDIAYYVGVSRRQLERLFKQYLGTVPSKYYLELRLNRARQLLQQTSKSIVQIGLACGFSSGPHFSSTYRNHFNITPREERAQRAQPGAL”, the protein production result is “not failed”.

For the sequence “GSSGSSGGYFDAHALAMDYRSLGFRECLAEVARYLSIIEGLDASDPLRVRLVSHLNNYASQREASGPSSG”, the protein production entry was “not failed”.

“GSSGSSGMPMTLGYWDIRGLAHAIRLFLEYTDSSYEEKRYTMGDAPDYDQSQWLNEKFKLGLDFPNLPYLIDGSHKITQSNAILRYLGRKHNLCGETEEERIRVDILENQLMDNRMVLARLCYNADFEKLKPGYLEQLPGMMRLYSEFLGKRPWFAGDKITFVDFIAYDVLERNQVFEAKCLDAFPNLKDFIARFEGLKKISDYMKTSRFLPRPMFTKMATWGSNSGPSSG”: the protein production result is given as “not failed”.

For “GSSGSSGMTPLVKDIIMSSTRMPALFLGHGSPMNVLEDNLYTRSWQKLGMTLPRPQAIVVVSAHWFTRGTGVTAMETPPTIHDFGGFPQALYDTHYPAPGSPALAQRLVELLAPIPVTLDKEAWGFDHGSWGVLIKMYPDADIPMVQLSIDSSKPAAWHFEMGRKLAALRDEGIMLVASGNVVHNLRTVKWHGDSSPYPWATSFNEYVKANLTWQGPVEQHPLVNYLDHEGGTLSNPTPEHYLPLLYVLGAWDGQEPITIPVEGIEMGSLSMLSVQIG”, the protein production entry is given as “not failed”.

Take “GTTVPAPIMQTTDNSLTWLLQNLLDRTPGTRHALVLSRDGLRLCWTEHLTLDRADQLAAICSGIQALAQGASVEFGNGTGGVRHSMTEFHGGLLFIVEAGEGAHLAVVAVEDADPGVVGHQMTELVEQIGEHLRAEPRH”: the protein production result is on record as “failed”.

With “GVAVEVRGLPPAVPDELLTLYFENRRRSGGGPVLSWQRLGCGGVLTFREPADAERVLAQADHELHGAQLSLRPAPPRAPARLLLQGLPPGT”, the protein production result was “not failed”.

For the sequence “GVKYTIAVLGPQGSFSEEMALKLVGSRVPLRYCSTTDEIIKLVESGEVDYGLVPIENSVNGTVLPVIDALLNHDVEVFGEAKLEVNHCLVAKRKIELKEIKTIYSHPQAVAQCMGFINNYLPSVAIRYTTSTSDAARMLDDYSAAIMSENAARFYRLHVLRKGIQDLKGRNITRFYLIRRRSG”, the protein production result is given as “failed”.

“GVQKVDKARKQITVAGGTRINEVGKTLKQHGLSLINQGDIDSQAVAGAFTTGTHGTGIKLGNMASSIAGMRIVKANGEILDIDGSDEELLHAAQVSVGTLGIISSMTLNVMDA”: the protein production result was “failed”.

Turning to “GVTYLLAKRKILYFEAVESKIFVYTEKDVYETTWKLYELEEKFKDSSFFRCSKSMILNIEWIEKIAPGFHGKFEASLFNREKVIISRQYAKILKQKLNLGGKGK”, the protein production result is recorded as “failed”.

On to “GWKVEYMAIADPQTIDQTPIVIVGGAFQNFNSYKYCVEQLFHCGPVILIDLPSMGANQQITNRDSGVSAAVLELPDLAKILVEWLDIIKIQKISMMGMSLGSVVASCFADLRPDMIDRLVLMGVMQKTRKSWRMILEESLKLMQENRMEEFGQAVILYLVNHAKLDQTRMSPTAKRLFFRQMAEFNPTERLRYEINCQRLLRLKDVPIPQCKTLVAAGQYDSFTLPFENANFALQCPDVEFALIANADHVPQLQRRKETMRLFETFLNH”, for which the protein production entry is “failed”.

As for “HALQAGRLGSTVFVANLDYKVGWKKLKEVFSMAGVVVRADILEDKDGKSRGIGTVTFEQSIEAVQAISMFNGQLLFDRPMHVKMDERALPKGDFFPPERPQQ”, the protein production result was “failed”.

The record behind these values is a protein production outcome set (Wang et al. 2014).
